Target: T1, Hsp42, yeast small heat shock protein (yeast, UniProt Q12329 1-375)
T1 construct: Hsp42, small heat shock protein of the yeast cytosol; also called sHsp; source: purified as described [28]; copies: 24
Test: co-sedimentation; preassembled NM fibers (5 µM NM monomer) incubated 60 min at 25°C with Hsp26 or Hsp42 (10 µM); fibers recovered at 16,000 g for 30 min; pellet with or without a wash step, SDS-PAGE, Coomassie
Conditions: both partners purified

T1 sequence (Q12329 whole entry): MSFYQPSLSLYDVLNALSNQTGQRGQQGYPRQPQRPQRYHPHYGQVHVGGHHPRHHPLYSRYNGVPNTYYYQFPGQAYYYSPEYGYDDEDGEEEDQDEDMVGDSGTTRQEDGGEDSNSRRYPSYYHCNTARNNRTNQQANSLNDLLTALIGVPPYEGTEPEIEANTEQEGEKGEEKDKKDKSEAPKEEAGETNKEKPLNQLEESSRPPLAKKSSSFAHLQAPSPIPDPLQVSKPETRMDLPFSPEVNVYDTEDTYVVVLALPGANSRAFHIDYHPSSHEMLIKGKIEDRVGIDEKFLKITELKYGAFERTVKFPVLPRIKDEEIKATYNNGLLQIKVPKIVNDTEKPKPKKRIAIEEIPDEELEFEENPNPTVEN

B1: NM, the prion domain (N and M domains) of the yeast translation termination factor Sup35, untagged (domain or fragment, UniProt P05453 1-253, looked up)
chain: MSDSNQGNNQQNYQQYSQNGNQQQGNNRYQGYQAYNAQAQPAGGYYQNYQGYSGYQQGGYQQYNPDAGYQQQYNPQGGYQQYNPQGGYQQQFNPQGGRGNYKNFNYNNNLQGYQAGFQPQSQGMSLNDFQKQQKQAAPKPKKTLKLVSSSGIKLANATKKVGTKPAESDKKEEEKSAETKEPTKEPTKVEEPVKKEEKPVQTEEKTEEKSELPKVEDLKISESTHNTNNANVTSADALIKEQEEEVDDEVVND
notes: Sup35, yeast translation termination factor; N domain (amino acids 1-123) plus M domain (amino acids 124-253) = NM; One construct used in several states: soluble NM, molten oligomers and preassembled amyloid fibers (assembled at 25°C with agitation in assembly buffer); With Hsp26 and Hsp42 it stood as preassembled fibers; also called untagged NM; NM fibers; source: purified as described [48]
binding result: binds
